Laboratory results as given in patent US20170029530A1 (AbbVie / Abbott, published 2017).
“And” between values parts separate entries of the source, which are not always exact repeats. Equal entries are not always repeated.

T1: cDPEP3 (Macaca fascicularis, UniProt Q4R7M2)
T1 construct: extracellular domain; also called cynomolgus DPEP3-His; cynomolgus DPEP3 ECD with histidine tag
T1 sequence (single chain, looked up): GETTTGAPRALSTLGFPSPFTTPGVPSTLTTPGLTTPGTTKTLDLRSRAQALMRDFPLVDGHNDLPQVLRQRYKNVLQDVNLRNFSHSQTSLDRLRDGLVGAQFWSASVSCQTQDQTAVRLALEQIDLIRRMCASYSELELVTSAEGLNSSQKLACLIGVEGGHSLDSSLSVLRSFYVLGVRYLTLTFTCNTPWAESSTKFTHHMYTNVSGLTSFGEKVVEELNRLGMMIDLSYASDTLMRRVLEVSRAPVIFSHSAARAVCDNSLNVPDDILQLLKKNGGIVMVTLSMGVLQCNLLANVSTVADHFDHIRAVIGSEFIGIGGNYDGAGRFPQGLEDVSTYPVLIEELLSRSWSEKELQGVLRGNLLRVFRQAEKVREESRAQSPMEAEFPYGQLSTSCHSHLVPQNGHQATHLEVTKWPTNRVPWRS

T2: mDPEP3 (limits assumed)
T2 construct: also called mouse DPEP3-His; mouse DPEP3 ECD with histidine tag
T2 single chain: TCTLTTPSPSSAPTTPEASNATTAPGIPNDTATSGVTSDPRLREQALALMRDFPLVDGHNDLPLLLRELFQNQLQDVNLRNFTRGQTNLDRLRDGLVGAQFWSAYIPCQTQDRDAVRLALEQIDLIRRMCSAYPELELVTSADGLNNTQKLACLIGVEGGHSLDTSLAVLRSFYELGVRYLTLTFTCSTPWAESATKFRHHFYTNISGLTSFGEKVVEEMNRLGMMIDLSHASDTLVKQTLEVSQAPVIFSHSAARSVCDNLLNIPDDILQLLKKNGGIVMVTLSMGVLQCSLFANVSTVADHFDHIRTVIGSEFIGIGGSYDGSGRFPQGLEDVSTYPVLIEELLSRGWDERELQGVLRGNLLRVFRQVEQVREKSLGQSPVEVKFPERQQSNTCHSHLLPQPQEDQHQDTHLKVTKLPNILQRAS

T3: rat DPEP3 ECD with histidine tag (rat, UniProt Q5U2X4 36-459, limits assumed)
T3 construct: also called rDPEP3-His; ratDPEP3-His; not shown: histidine tag
T3 sequence: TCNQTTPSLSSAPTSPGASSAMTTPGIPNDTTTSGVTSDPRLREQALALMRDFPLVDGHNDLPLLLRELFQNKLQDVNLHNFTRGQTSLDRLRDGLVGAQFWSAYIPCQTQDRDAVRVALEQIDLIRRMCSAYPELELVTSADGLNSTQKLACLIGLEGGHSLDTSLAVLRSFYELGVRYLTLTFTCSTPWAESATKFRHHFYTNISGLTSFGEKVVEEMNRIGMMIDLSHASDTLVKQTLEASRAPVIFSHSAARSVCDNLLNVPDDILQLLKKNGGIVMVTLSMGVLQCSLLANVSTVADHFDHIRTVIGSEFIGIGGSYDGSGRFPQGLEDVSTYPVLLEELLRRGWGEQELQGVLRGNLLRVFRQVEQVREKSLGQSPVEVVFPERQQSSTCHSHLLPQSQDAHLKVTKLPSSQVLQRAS

T4: hDPEP3-ECD-His (human, UniProt Q9H4B8 36-463)
T4 construct: also called hDPEP3-His; monomeric hDPEP3-His antigen; not shown: histidine tag
T4 sequence: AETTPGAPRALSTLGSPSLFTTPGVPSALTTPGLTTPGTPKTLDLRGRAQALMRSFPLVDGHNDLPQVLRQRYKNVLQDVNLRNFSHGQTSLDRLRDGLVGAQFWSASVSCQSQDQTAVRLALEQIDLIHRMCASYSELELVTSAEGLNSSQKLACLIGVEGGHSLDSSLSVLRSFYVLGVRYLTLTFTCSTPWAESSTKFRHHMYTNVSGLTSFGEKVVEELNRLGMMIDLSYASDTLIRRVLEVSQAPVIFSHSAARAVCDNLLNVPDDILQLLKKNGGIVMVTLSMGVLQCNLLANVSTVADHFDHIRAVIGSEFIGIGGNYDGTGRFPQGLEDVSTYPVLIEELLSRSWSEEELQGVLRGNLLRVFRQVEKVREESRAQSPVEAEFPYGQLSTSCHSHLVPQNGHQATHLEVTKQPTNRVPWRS


How the values were obtained:
cDPEP3 = target: T1, cDPEP3; assay: ELISA, coated antigen
Protocol: (§1) The anti-DPEP3 antibodies were screened by ELISA for cross-reactivity with mouse, rat and cynomolgus DPEP3 and for cross reactivity to hDPEP2, the closest DPEP3 family member. ELISA was conducted as follows. Plates were coated with purified mouse, rat or cynomolgus DPEP3-His or hDPEP2-His at 0.3 μg/mL in 0.2 M carbonate-bicarbonate buffer, pH 9.4 overnight at 4° C. The protein solution was removed and the wells were blocked with 1% (w/v) BSA in PBS (PBSA), 100 μL/well for 1 hour at 37° C. Anti-DPEP3 antibody or a mouse isotype control antibody was then added at 1 μg/mL in 50 μL PBSA for 1 hour at room temperature. After washing with water, 50 μL/well HRP-labeled goat anti-mouse IgG antibody diluted 1:10,000 in PBSA was added for 30 min at room temperature. The plates were washed and developed by the addition of 40 μL/well of the TMB substrate solution (Thermo Scientific) at room temperature. An equal volume of 0.2 M H₂SO₄ was added to stop substrate development. The samples were then analyzed by spectrophotometer at OD 450. […] The cross reactivity results for exemplary DPEP3-specific antibodies can be seen in FIG. 4.

mDPEP3 = target: T2, mDPEP3; assay: ELISA, coated antigen
Protocol: as §1

[1] = target: T3, rat DPEP3 ECD with histidine tag; assay: ELISA, coated antigen
Protocol: as §1

[2] = target: T5, hDPEP2 ECD with histidine tag (human, UniProt Q9H4A9 33-463); assay: ELISA, coated antigen
T5 construct: also called hDPEP2-His; not shown: histidine tag
Protocol: as §1

hDPEP3-ECD-His = target: T4, hDPEP3-ECD-His; assay: BLI ForteBio RED, 200 nM hDPEP3-His, estimated grade
Protocol: The affinity of the antibodies for hDPEP3-His was qualitatively determined from kinetics curves generated with a ForteBio RED as follows. Anti-DPEP3 antibodies were immobilized onto anti-mouse Fc capture biosensors with a contact time of 3 mins. and a flow rate of 1000 rpm. The captured antibody loading from baseline was constant at 0.3-1 units. Following antibody capture and 30 second baseline, the biosensors were dipped into a 200 nM solution of hDPEP3-His for a 4 min. association phase followed by a 3 min. dissociation phase at a shaking rate of 1000 rpm. The biosensors were regenerated by dipping into 10 mM glycine, pH 1.7 following each cycle. The data was processed by subtracting a control mouse IgG surface response from the specific antibody response and data was truncated to the association and dissociation phase. The association and dissociation curves were used to qualitatively estimate the affinities of selected antibodies. […] A designation of “ND” means that the estimated KD was not determined.

T5 sequence (Q9H4A9 33-463): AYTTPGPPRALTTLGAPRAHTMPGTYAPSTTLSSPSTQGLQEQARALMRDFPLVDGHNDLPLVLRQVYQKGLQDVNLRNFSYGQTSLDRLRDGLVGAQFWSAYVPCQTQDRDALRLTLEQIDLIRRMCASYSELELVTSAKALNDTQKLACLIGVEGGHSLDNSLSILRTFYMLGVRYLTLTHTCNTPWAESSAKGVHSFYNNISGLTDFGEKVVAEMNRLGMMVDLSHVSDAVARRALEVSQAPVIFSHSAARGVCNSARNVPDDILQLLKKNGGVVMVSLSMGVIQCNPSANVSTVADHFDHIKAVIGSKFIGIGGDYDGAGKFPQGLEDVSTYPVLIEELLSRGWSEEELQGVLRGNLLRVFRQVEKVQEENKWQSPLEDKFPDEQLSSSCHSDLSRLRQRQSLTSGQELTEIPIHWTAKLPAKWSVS

Binder | binding result (cDPEP3) | binding result (mDPEP3) | binding result [1] | binding result [2] | Kd (hDPEP3-ECD-His)
SC34.39 (antibody, mouse IgG2a, V domains shown) VH: QVQLQQSGAELMKPGASVKISCKATGYTFSNYWIEWVKQRPGHGLEWIGEILPGSDSTYFNEKFKGKATFTADTSSNTAYMQLSSLTSEDSAVYYCTIRSAAYYSNPEWFAYWGQGTLVTVSA VL: QIVLTQSPAIMSASQGERVTMTCTASSSVSSNYLHWYQQKPGSSPKLWIYSTSHLASGVPVRFSGSGSGTSYSLTISSMEAEDAATYYCHQYHRSPYTFGGGTKLEIK | no binding (tested: 1 ug/mL) | no binding (tested: 1 ug/mL) | no binding (tested: 1 ug/mL) | no binding (tested: 1 ug/mL) | < 5 nM
SC34.90 (antibody, mouse IgG2a, V domains shown) VH: QVQLQQSGAELMKPGASVKISCKATGYTFSYYWIEWVKQRPGHGLEWIGEILPGSDTTYYNEKFKGKATFTADTSSNTAYMQLSSLTSEDSAVYYCTIRRAAYYSNPEWFAYWGQGTLVTVSA VL: QIVLTQSPAIMSASQGERVTMTCTASSSVSSSYLHWYQQKPGSSPKLWIYSTSNLASGVPVRFSGSGSGTSYSLTISSMEAEDAATYYCHQYHRSPYTFGGGTKLEIK | no binding (tested: 1 ug/mL) | no binding (tested: 1 ug/mL) | no binding (tested: 1 ug/mL) | no binding (tested: 1 ug/mL) | ≥ 5 nM and ≤ 10 nM
SC34.18 (antibody, mouse IgG2b, V domains shown) VH: QVSLKESGPGILQPSQTLSLTCSFSGFSLSTSGMGVGWIRQPSGKGLEWLANIWWDDSIYYNTALKSRLTISKDTSKNQVFLKIASVDTADTATYSCARIESYYGNRAWFAYWGQGTLVTVSA VL: DIVMTQSQKFMSTSVGDRVSITCKASQNVRTAVGWYQQKPGQSPKTLIYLASNRHTGVSDRFTGSGSGTDFTLTISNVQSEDLADYFCLQHWNYPWTFGGGTKLEIK | no binding (tested: 1 ug/mL) | no binding (tested: 1 ug/mL) | no binding (tested: 1 ug/mL) | no binding (tested: 1 ug/mL) | < 5 nM
SC34.78 (antibody, mouse IgG1, V domains shown) VH: DVQLQESGRGLVKPSQSLSLTCTVTGYSLTSDFAWNWIRQFPGNKLEWMGYIRYSGTTSYNPSLKSRISITRDTSKNQFFLQLNSVTTEDTATYYCGYGNYGYAMDYWGQGTSVTVSS VL: DIMMTQSPATLSVTPGDRVSLSCRASQSIGAYLHWYQQKSHESPRLLIKYVSQSISGIPSRFSGSGSGSDFTLSINSVEPEDVGVYYCQNGHSFPLTFGAGTKLELK | no binding (tested: 1 ug/mL) | no binding (tested: 1 ug/mL) | no binding (tested: 1 ug/mL) | no binding (tested: 1 ug/mL) | > 10 nM
SC34.26 (antibody, mouse IgG2b, V domains shown) VH: QVQLQQPGAELVKPGASVTLSCKASGYTFTSYYIYWVKQRPGEGLEWIGEINPSNGGPNFNERFKNKATLTVDKSSSTAYMQLSSLTSEDSAVYYCTRGLLYYDYDRGFAYWGQGTLVTVSA VL: not shown | no binding (tested: 1 ug/mL) | no binding (tested: 1 ug/mL) | no binding (tested: 1 ug/mL) | no binding (tested: 1 ug/mL) | > 10 nM
SC34.38 (antibody, mouse IgG2b, V domains shown) VH: QVQLQQPGAELVKPGASVTLSCKASGYTFTSYYMYWVKQRPGEGLEWIGEINPSNGGANFNERFKNKATLTVDKSSSTAYMQLSSLTSEDSAVFYCTRGLLYYDYDRGFAYWGQGTLVTVSA VL: not shown | no binding (tested: 1 ug/mL) | no binding (tested: 1 ug/mL) | no binding (tested: 1 ug/mL) | no binding (tested: 1 ug/mL) | < 5 nM

Results, then the binder that gave them:

binding result (cDPEP3) | binding result (mDPEP3) | binding result [1] | binding result [2] | Kd (hDPEP3-ECD-His) | Binder
no binding (tested: 1 ug/mL) | no binding (tested: 1 ug/mL) | no binding (tested: 1 ug/mL) | no binding (tested: 1 ug/mL) | < 5 nM | SC34.6 (antibody, mouse IgG1, V domains shown, also called SC34.06) VH: EVQLQQSGPELVKPGTSMKISCKASGYSFTGYTMNWVKQSHGKNLEWIGLIYPYNDDTRYNRKFKGKATLTVDKSSNTAYMELLSLTSVDSAVCYCARGSYGSPFFDVWGAGTTVTVSS VL: not shown
no binding (tested: 1 ug/mL) | no binding (tested: 1 ug/mL) | no binding (tested: 1 ug/mL) | no binding (tested: 1 ug/mL) | < 5 nM | SC34.21 (antibody, mouse IgG1, V domains shown) VH: EVQLQQSGPELVKPGTSMKISCKASGYSFTGYTMNWVKQSHGKNLEWIGLIYPYNDDTRYNRKFKGKATLTVDKSSNTAYMELLSLTSVDSAVCYCARGSYGSPFFDVWGAGTTVTVSS VL: not shown
no binding (tested: 1 ug/mL) | no binding (tested: 1 ug/mL) | no binding (tested: 1 ug/mL) | no binding (tested: 1 ug/mL) | < 5 nM | SC34.71 (antibody, mouse IgG2a, V domains shown) VH: QVSLKESGPGILQPSQTLSLTCSFFGFSLSTSSMGVGWIRQPSGKGLEWLANIWWDNNKYYNAALKSRLTISKDTSKNQVFLNIASVDTTDTATYYCARIESYYSNRAWFPYWGRGTLVTVSA VL: DIVMTQSQKFMSTSVGDRVSITCKASQNVRTAVAWYQQKPGQSPKTLIYLASNRHTGVPDRFTGSGSGTDFTLTISYVQSEDLADYFCLQHLNYPWTFGGGTKLEIK
